Test results reported in patent US20070244048A1 (published 2007).
Read-outs that look alike come from different tables or passages of the source. Non-standard residues stand in square brackets, D forms with d. *: point of attachment. Succinimide(1-Et,3-yl) = CCN1C(=O)CC(*)C1=O

Columns and labels:
human NMUR2 [1] = target: T1, human NMUR2 (human, UniProt Q9GZQ4 1-415); experiment: 125I-hNMU-25 displacement, HEK cell membranes
Description: (§1) Confluent cell monolayers expressing NMU receptors (the HEK cells described above) were harvested with phosphate buffered saline, collected by centrifugation, and resuspended in membrane buffer (50 mM TrisCl pH 7.4, 5 mM MgCl₂, 1× Protease Inhibitor Cocktail, 10 μM phosphoramidon). After the cell pellet was homogenized, the solution was centrifuged at 18,000 rpm for 20 minutes at 4° C. The pellet was resuspended in membrane buffer to yield a final concentration of 0.5-5 μg/μL of membrane and stored at −80° C.
(§2) Experiments were performed in assay buffer (25 mM TrisCl, pH 7.4, 10 mM MgCl₂, 2mM EDTA, 1× Protease Inhibitor Cocktail, 100 μg/mL Bacitricin, 10 μM phosphoramidon) in 200 μL volumes in a 96-well format using 2-5 μg of membrane and […] ¹²⁵I-hNMU-25 (about 12,000 cpm/well). For non-specific binding, 1 μM hNMU-25 was added. About 5 μL of peptides were added to measure antagonist activity, and the entire reaction was incubated at room temperature with shaking for 80 minutes. The reaction was terminated by rapid filtration through 0.3% poly-ethylenimine presoaked Millipore 96-well filter plates and washed with ice-cold buffer (5 mM TrisCl pH 7.4, 10 mM MgCl₂, 2.5 mM EDTA, 0.04% Triton X-100). Plates were air-dried overnight at room temperature and recovered radioactivity was determined by standard scintillation counting. IC₅₀ values were determined using GraphPad Prism software.
(§3) Concentration-response curves and radioligand-binding data were fitted using Prism (GraphPad Software). Results are summarized below in Tables 8 and 9.

human NMUR1 [2] = target: T2, human NMUR1 (human, UniProt Q9HB89 1-426); experiment: 125I-hNMU-25 displacement, HEK cell membranes
T2 sequence (looked up): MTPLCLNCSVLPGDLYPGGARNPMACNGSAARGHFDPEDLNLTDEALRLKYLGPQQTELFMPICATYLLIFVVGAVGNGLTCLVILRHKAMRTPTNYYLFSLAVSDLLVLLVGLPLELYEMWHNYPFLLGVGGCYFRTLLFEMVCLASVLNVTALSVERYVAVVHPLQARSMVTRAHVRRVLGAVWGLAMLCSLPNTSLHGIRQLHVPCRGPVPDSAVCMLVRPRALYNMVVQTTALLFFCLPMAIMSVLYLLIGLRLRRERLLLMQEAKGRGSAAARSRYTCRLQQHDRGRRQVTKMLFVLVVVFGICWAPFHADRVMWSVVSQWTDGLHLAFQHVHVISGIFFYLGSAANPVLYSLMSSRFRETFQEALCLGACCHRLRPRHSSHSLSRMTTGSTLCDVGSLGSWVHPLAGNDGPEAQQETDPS
Description: as §1, §2, §3

rat NMUR1-ATG [3] = target: T3, rat NMUR1-ATG (rat, UniProt Q9JJI5 1-425); experiment: cell-based or functional assay
T3 sequence (looked up): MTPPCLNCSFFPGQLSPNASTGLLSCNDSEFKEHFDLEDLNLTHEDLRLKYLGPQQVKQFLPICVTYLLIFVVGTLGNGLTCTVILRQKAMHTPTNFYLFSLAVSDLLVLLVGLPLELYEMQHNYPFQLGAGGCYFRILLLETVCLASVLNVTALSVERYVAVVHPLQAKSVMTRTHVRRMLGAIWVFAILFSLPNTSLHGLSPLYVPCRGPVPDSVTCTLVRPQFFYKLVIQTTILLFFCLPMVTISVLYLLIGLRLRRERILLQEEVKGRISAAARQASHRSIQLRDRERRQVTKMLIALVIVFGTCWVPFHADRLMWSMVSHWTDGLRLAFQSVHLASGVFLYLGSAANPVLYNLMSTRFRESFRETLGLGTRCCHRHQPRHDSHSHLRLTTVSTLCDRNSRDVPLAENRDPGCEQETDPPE

rat NMUR2 [4] = target: T4, rat NMUR2 (rat, UniProt Q9ESQ4 1-395); experiment: cell-based or functional assay
human NMUR2 [5] = target: T1, human NMUR2; experiment: cell-based or functional assay
human NMUR1 [6] = target: T2, human NMUR1; experiment: cell-based or functional assay
mouse NMUR1-ATG [7] = target: T5, mouse NMUR1-ATG (mouse, UniProt O55040 1-428); experiment: cell-based or functional assay
T5 sequence (looked up): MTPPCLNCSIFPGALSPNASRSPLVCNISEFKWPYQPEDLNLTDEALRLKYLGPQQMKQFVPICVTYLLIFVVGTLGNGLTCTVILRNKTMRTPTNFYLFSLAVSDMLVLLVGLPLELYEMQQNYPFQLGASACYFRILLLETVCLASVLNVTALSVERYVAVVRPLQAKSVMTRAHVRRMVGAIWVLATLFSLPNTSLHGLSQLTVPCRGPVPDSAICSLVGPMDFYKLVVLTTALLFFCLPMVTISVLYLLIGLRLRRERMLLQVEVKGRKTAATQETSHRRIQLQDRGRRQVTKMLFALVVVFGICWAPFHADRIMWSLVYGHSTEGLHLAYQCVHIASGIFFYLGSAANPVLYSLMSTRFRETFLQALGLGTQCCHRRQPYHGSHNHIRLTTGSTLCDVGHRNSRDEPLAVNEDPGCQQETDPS

mouse NMUR2 [8] = target: T6, mouse NMUR2 (mouse, UniProt Q8BZ39 1-395); experiment: cell-based or functional assay
mouse NMUR1-CTG [9] = target: T7, mouse NMUR1-CTG (mouse, UniProt O55040 1-428); experiment: cell-based or functional assay
T7 sequence (looked up): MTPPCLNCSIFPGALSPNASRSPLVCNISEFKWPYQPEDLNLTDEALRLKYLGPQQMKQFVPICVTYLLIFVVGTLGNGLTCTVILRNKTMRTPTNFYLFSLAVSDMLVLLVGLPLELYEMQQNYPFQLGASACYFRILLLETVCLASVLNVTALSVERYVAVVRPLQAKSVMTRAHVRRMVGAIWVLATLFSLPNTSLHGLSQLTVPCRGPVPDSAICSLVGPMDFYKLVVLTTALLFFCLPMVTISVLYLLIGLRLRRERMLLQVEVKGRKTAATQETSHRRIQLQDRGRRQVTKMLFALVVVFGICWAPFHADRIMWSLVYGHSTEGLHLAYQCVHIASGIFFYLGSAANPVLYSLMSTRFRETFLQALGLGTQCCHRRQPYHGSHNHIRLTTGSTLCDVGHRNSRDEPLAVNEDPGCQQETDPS

human NMUR2 [10] = target: T1, human NMUR2; experiment: cell-based or functional assay; remark: listed apart in the source
human NMUR1 [11] = target: T2, human NMUR1; experiment: cell-based or functional assay; remark: listed apart in the source
rat NMUR1-ATG [12] = target: T3, rat NMUR1-ATG; experiment: cell-based or functional assay; remark: listed apart in the source
rat NMUR1-TTG [13] = target: T8, rat NMUR1-TTG (rat, UniProt Q9JJI5 1-425); experiment: cell-based or functional assay
T8 sequence (looked up): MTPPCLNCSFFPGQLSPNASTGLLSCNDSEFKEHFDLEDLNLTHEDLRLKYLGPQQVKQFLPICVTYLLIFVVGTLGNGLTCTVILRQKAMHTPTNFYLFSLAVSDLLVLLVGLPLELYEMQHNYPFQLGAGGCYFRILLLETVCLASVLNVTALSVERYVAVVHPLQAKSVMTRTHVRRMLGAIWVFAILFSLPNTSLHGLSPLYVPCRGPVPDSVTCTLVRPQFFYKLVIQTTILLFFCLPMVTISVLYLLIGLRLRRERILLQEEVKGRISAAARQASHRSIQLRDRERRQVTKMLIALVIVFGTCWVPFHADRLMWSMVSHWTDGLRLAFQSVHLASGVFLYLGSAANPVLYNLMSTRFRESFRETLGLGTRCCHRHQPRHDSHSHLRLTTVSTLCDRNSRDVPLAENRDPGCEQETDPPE

human NMUR2 [14] = target: T1, human NMUR2; experiment: cell-based or functional assay; remark: listed apart in the source
mouse NMUR1-ATG [15] = target: T5, mouse NMUR1-ATG; experiment: cell-based or functional assay; remark: listed apart in the source
mouse NMUR2 [16] = target: T6, mouse NMUR2; experiment: cell-based or functional assay; remark: listed apart in the source
rat NMUR2 [17] = target: T4, rat NMUR2; experiment: cell-based or functional assay; remark: listed apart in the source
mouse NMUR1-CTG [18] = target: T7, mouse NMUR1-CTG; experiment: cell-based or functional assay; remark: listed apart in the source
human NMUR1 [19] = target: T2, human NMUR1; experiment: cell-based or functional assay; remark: listed apart in the source
rat NMUR1-TTG [20] = target: T8, rat NMUR1-TTG; experiment: cell-based or functional assay; remark: listed apart in the source
rat NMUR1-ATG [21] = target: T3, rat NMUR1-ATG; experiment: 125I-hNMU-25 displacement, cell membranes
rat NMUR1-TTG [22] = target: T8, rat NMUR1-TTG; experiment: 125I-hNMU-25 displacement, cell membranes
human NMUR2 [23] = target: T1, human NMUR2; experiment: 125I-hNMU-25 displacement, cell membranes
mouse NMUR1-ATG [24] = target: T5, mouse NMUR1-ATG; experiment: 125I-hNMU-25 displacement, cell membranes
mouse NMUR2 [25] = target: T6, mouse NMUR2; experiment: 125I-hNMU-25 displacement, cell membranes
rat NMUR2 [26] = target: T4, rat NMUR2; experiment: 125I-hNMU-25 displacement, cell membranes
mouse NMUR1-CTG [27] = target: T7, mouse NMUR1-CTG; experiment: 125I-hNMU-25 displacement, cell membranes
human NMUR1 [28] = target: T2, human NMUR1; experiment: 125I-hNMU-25 displacement, cell membranes

T6 sequence (Q8BZ39 whole entry): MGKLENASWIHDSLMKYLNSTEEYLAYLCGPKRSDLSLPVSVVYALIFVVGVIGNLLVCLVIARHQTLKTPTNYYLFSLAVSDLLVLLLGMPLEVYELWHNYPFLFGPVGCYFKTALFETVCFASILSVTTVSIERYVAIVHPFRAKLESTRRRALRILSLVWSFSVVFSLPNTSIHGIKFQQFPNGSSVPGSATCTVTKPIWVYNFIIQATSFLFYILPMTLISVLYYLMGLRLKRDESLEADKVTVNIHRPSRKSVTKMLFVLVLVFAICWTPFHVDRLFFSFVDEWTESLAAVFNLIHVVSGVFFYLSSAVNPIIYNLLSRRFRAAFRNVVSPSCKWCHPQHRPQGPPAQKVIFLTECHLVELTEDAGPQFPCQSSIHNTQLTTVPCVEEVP
T1 sequence (Q9GZQ4 whole entry): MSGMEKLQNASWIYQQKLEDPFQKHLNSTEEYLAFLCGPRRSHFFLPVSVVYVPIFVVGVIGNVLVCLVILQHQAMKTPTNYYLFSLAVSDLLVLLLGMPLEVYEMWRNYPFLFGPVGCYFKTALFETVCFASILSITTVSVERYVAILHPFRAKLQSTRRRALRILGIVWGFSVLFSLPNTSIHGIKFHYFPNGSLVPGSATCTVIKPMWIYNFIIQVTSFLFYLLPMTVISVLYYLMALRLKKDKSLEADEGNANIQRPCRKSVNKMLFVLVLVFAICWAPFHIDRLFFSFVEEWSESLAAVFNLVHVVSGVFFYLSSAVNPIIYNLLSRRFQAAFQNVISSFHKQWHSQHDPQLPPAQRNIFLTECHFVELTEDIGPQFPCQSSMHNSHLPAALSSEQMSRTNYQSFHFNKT
T4 sequence (Q9ESQ4 whole entry): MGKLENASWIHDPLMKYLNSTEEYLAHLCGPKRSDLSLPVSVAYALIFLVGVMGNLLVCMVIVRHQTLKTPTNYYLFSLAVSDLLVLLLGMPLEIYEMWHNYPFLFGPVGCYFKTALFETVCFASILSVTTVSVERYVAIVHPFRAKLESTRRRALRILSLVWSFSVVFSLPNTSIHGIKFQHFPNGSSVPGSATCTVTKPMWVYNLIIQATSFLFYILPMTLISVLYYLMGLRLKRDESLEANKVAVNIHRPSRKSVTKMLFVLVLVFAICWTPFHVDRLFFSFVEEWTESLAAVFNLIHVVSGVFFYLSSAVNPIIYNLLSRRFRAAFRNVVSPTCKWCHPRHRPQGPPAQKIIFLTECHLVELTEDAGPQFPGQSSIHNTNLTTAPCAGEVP

B1: NMU8 (peptide)
peptide: Ac-C(Succinimide(1-Et,3-yl))FRVDEEFQSPFASQSRGYFLFRPRN-NH2
Human NMUR2 [1]
  % activity (binding): 100%
  IC50: 0.3 nM
Human NMUR1 [2]
  % activity (binding): 100%
  IC50: 2.4 nM
Rat NMUR1-ATG [3]
  % Activity (FLIPR): 97.2%
  EC50 (FLIPR): 36.7 nM
Rat NMUR2 [4]
  % Activity (FLIPR): 94.7%
  EC50 (FLIPR): 45.1 nM
Human NMUR2 [5]
  % Activity (FLIPR): 100%
  EC50 (FLIPR): 5.2 nM
Human NMUR1 [6]
  % Activity (FLIPR): 99.1%
  EC50 (FLIPR): 10.7 nM
Mouse NMUR1-ATG [7]
  % Activity (FLIPR): 100%
  EC50 (FLIPR): 6.4 nM
Mouse NMUR2 [8]
  % Activity (FLIPR): 100%
  EC50 (FLIPR): 1.8 nM
Mouse NMUR1-CTG [9]
  % Activity (FLIPR): 100%
  EC50 (FLIPR): 15.5 nM
Human NMUR2 [10]
  % activity: 104%
  EC50: 2.9 nM
Human NMUR1 [11]
  % activity: 100%
  EC50: 1.36 nM

B2: NMU13 (peptide)
peptide: Ac-C(Succinimide(1-Et,3-yl))FRVDEEFQSPFASQSRGYF[dA]WRPRN-NH2
SMILES: CCN1C(=O)CC(SC[C@H](NC(C)=O)C(=O)N[C@@H](Cc2ccccc2)C(=O)N[C@@H](CCCNC(=N)N)C(=O)N[C@H](C(=O)N[C@@H](CC(=O)O)C(=O)N[C@@H](CCC(=O)O)C(=O)N[C@@H](CCC(=O)O)C(=O)N[C@@H](Cc2ccccc2)C(=O)N[C@@H](CCC(N)=O)C(=O)N[C@@H](CO)C(=O)N2CCC[C@H]2C(=O)N[C@@H](Cc2ccccc2)C(=O)N[C@@H](C)C(=O)N[C@@H](CO)C(=O)N[C@@H](CCC(N)=O)C(=O)N[C@@H](CO)C(=O)N[C@@H](CCCNC(=N)N)C(=O)NCC(=O)N[C@@H](Cc2ccc(O)cc2)C(=O)N[C@@H](Cc2ccccc2)C(=O)N[C@H](C)C(=O)N[C@@H](Cc2c[nH]c3ccccc23)C(=O)N[C@@H](CCCNC(=N)N)C(=O)N2CCC[C@H]2C(=O)N[C@@H](CCCNC(=N)N)C(=O)N[C@@H](CC(N)=O)C(N)=O)C(C)C)C1=O
notes: also called NMUR1 selective peptide NMU13
Rat NMUR1-ATG [12]
  % activity: 92%
  IC50 (nM), functional: 15.8 nM
Rat NMUR1-TTG [13]
  % activity: 94%
  IC50 (nM), functional: 107 nM
Human NMUR2 [14]
  % activity: 0%
  IC50 (nM), functional: > 1000 nM
Mouse NMUR1-ATG [15]
  % activity: 96%
  IC50 (nM), functional: 7.8 nM
Mouse NMUR2 [16]
  % activity: 27%
  IC50 (nM), functional: > 1000 nM
Rat NMUR2 [17]
  % activity: 24%
  IC50 (nM), functional: > 1000 nM
Mouse NMUR1-CTG [18]
  % activity: 88%
  IC50 (nM), functional: 14 nM
Human NMUR1 [19]
  % activity: 91%
  IC50 (nM), functional: 1.7 nM
Rat NMUR1-ATG [3]
  % Activity (FLIPR): 100%
  EC50 (FLIPR): 9.5 nM
Rat NMUR1-TTG [20]
  % Activity (FLIPR): 94.6%
  EC50 (FLIPR): 115 nM
Rat NMUR2 [4]
  % Activity (FLIPR): 0%
  EC50 (FLIPR): > 1000 nM
Human NMUR2 [5]
  % Activity (FLIPR): 0%
  EC50 (FLIPR): > 1000 nM
Human NMUR1 [6]
  % Activity (FLIPR): 100%
  EC50 (FLIPR): 4.8 nM
Rat NMUR1-ATG [21]
  % inhibition of NMU-25 binding: 100%
  IC50: 1.6 nM
Rat NMUR1-TTG [22]
  % inhibition of NMU-25 binding: 100%
  IC50: 3.24 nM
Human NMUR2 [23]
  % inhibition of NMU-25 binding: 48%
Mouse NMUR1-ATG [24]
  % inhibition of NMU-25 binding: 100%
  IC50: 5.4 nM
Mouse NMUR2 [25]
  % inhibition of NMU-25 binding: 30%
Rat NMUR2 [26]
  % inhibition of NMU-25 binding: 0%
Mouse NMUR1-CTG [27]
  % inhibition of NMU-25 binding: 100%
  IC50: 3.5 nM
Human NMUR1 [28]
  % inhibition of NMU-25 binding: 100%
  IC50: 4.3 nM
Mouse NMUR1-ATG [7]
  % Activity (FLIPR): 98.6%
  EC50 (FLIPR): 35.8 nM
Mouse NMUR2 [8]
  % Activity (FLIPR): 0%
  EC50 (FLIPR): > 1000 nM
Mouse NMUR1-CTG [9]
  % Activity (FLIPR): 73.6%
  EC50 (FLIPR): 142 nM
